The experiment has as its target T1, mouse recombinant FGF R3(IIIc)-Fc (mouse, UniProt Q61851 21-369).
T1 construct: FGF receptor 3, (IIIc) form, mouse, extracellular domain fused to IgG-Fc portion; also called FGFR3 (murine); source: bought: R&D Systems
T1 sequence (looked up): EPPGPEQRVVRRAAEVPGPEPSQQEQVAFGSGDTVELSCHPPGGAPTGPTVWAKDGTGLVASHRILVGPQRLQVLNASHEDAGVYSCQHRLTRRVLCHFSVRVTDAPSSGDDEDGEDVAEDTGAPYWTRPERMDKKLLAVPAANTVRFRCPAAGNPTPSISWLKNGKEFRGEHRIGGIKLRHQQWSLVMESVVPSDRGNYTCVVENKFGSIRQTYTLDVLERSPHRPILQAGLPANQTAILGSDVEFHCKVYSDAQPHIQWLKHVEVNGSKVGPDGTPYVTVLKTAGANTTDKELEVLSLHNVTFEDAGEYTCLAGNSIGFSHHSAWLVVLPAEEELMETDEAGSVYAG
Nature of the experiment: SPR; Biacore 2000; FGFR/Fc fusion proteins immobilised onto a CM5 sensor chip via prebound protein A (1,000 RUs); FGF2 injected with or without the RNA aptamer APT-F2; for FGFR1: receptor 100 nmol/l, FGF2 100 nmol/l, heparin 100 nmol/l, APT-F2 150 nmol/l. To be noted: both partners purified.

B1: murine FGF2 (ligand, UniProt P15655 10-154, looked up)
chain: PALPEDGGAAFPPGHFKDPKRLYCKNGGFFLRIHPDGRVDGVREKSDPHVKLQLQAEERGVVSIKGVCANRYLAMKEDGRLLASKCVTEECFFFERLESNNYNTYRSRKYSSWYVALKRTGQYKLGSKTGPGQKAILFLPMSAKS
notes: Fibroblast growth factor 2, mouse, recombinant; also called mouse FGF2; source: bought: PEPROTECH
On to B1, for which the binding result is recorded as “binds”.
